Conditions in all cases: source organism: Influenza A virus
In assay [1] the target is HLA-B*44:03. Kind of assay: IEDB peptide-MHC binding, purified MHC/competitive/fluorescence; ≥ and ≤ were set here for values at or beyond the usual limits of such assays.
In assay [2] the target is HLA-B*18:01. The assay is described as above.
The target of assay [3] is HLA-B*40:01. Described as above.
Assay [4] has as its target HLA-B*44:02. Described as above.
The target of assay [5] is HLA-B*40:02. Nature of the assay: IEDB peptide-MHC binding, purified MHC/competitive/radioactivity; ≥ and ≤ were set here for values at or beyond the usual limits of such assays.
The target of assay [6] is HLA-B*45:01. The assay is described as above.
Assay [7] has as its target HLA-B*40:02. Kind of assay: IEDB peptide-MHC binding, purified MHC/competitive/fluorescence; ≥ and ≤ were set here for values at or beyond the usual limits of such assays.
The target of assay [8] is HLA-B*45:01. Described as above.
The target in assay [9] is HLA-B*44:03. Nature of the assay: IEDB peptide-MHC binding, purified MHC/competitive/radioactivity; ≥ and ≤ were set here for values at or beyond the usual limits of such assays.
The target of assay [10] is HLA-B*44:02. Described as above.
The target in assay [11] is HLA-B*40:01. The description is as above.
Assay [12] concerns the target HLA-A*30:02. Kind of assay: IEDB peptide-MHC binding, purified MHC/competitive/fluorescence; ≥ and ≤ were set here for values at or beyond the usual limits of such assays.
The target in assay [13] is HLA-A*26:01. The description is as above.
The target in assay [14] is HLA-A*01:01. Kind of assay: IEDB peptide-MHC binding, purified MHC/competitive/radioactivity; ≥ and ≤ were set here for values at or beyond the usual limits of such assays.
The target in assay [15] is HLA-A*29:02. Described as above.
Assay [16] deals with HLA-A*02:06. Nature of the assay: IEDB peptide-MHC binding, purified MHC/competitive/fluorescence; ≥ and ≤ were set here for values at or beyond the usual limits of such assays.
The target in assay [17] is HLA-A*02:02. Described as above.
Assay [18] has as its target HLA-A*02:01. Nature of the assay: IEDB peptide-MHC binding, purified MHC/competitive/radioactivity; ≥ and ≤ were set here for values at or beyond the usual limits of such assays.
For assay [19], the target named is HLA-A*02:03. The assay is described as above.
The target in assay [20] is HLA-B*18:01. Described as above.
Assay [21] addresses HLA-A*02:06. The description is as above.
In assay [22] the target is HLA-A*68:02. Described as above.
The target in assay [23] is HLA-A*02:02. The assay is described as above.
For assay [24], the target named is HLA-A*02:01. Nature of the assay: IEDB peptide-MHC binding, purified MHC/competitive/fluorescence; ≥ and ≤ were set here for values at or beyond the usual limits of such assays.
Assay [25] concerns the target HLA-A*68:02. The assay is described as above.
The target of assay [26] is HLA-A*31:01. Nature of the assay: IEDB peptide-MHC binding, purified MHC/competitive/radioactivity; ≥ and ≤ were set here for values at or beyond the usual limits of such assays.
Assay [27] addresses HLA-A*03:01. Described as above.
The next assay has as its target HLA-A*23:01. The assay is described as above.
The next assay addresses HLA-A*24:02. The assay is described as above.
For assay [28], the target named is HLA-A*02:03. Kind of assay: IEDB peptide-MHC binding, purified MHC/competitive/fluorescence; ≥ and ≤ were set here for values at or beyond the usual limits of such assays.
Assay [29] addresses HLA-A*33:01. Described as above.
Assay [30] deals with HLA-A*11:01. Described as above.
The target in assay [31] is HLA-A*03:01. The description is as above.
In assay [32] the target is HLA-A*33:01. Nature of the assay: IEDB peptide-MHC binding, purified MHC/competitive/radioactivity; ≥ and ≤ were set here for values at or beyond the usual limits of such assays.
Assay [33] deals with HLA-A*68:01. The assay is described as above.
Assay [34] addresses HLA-A*11:01. Described as above.
For assay [35], the target named is HLA-A*01:01. Nature of the assay: IEDB peptide-MHC binding, purified MHC/competitive/fluorescence; ≥ and ≤ were set here for values at or beyond the usual limits of such assays.
Assay [36] deals with HLA-A*30:02. Nature of the assay: IEDB peptide-MHC binding, purified MHC/competitive/radioactivity; ≥ and ≤ were set here for values at or beyond the usual limits of such assays.
Assay [37] concerns the target HLA-A*26:01. Described as above.
For assay [38], the target named is HLA-A*68:01. Nature of the assay: IEDB peptide-MHC binding, purified MHC/competitive/fluorescence; ≥ and ≤ were set here for values at or beyond the usual limits of such assays.
The target in assay [39] is HLA-A*31:01. The description is as above.
In assay [40] the target is HLA-A*29:02. The assay is described as above.

pIC50: −log10 of the molar value.

On to AEIMKICST, for which the pIC50 in the assay with HLA-B*44:03 [1] is 4.93; with HLA-B*18:01 [2], 4.55; with HLA-B*40:01 [3], 4.47; with HLA-B*44:02 [4] it was 5.29; with HLA-B*40:02 [5], 7.89; with HLA-B*45:01 [6] it was 6.86.
Regarding AEKPKFLPDLY, the pIC50 is 4.46 with HLA-B*18:01 [2]; 4.96 in the assay with HLA-B*40:01 [3]; 5.32 with HLA-B*40:02 [7]; 5.53 with HLA-B*45:01 [8]; 5.84 in the assay with HLA-B*44:03 [9]; 6.39 in the assay with HLA-B*44:02 [10].
In the case of AESRKLLLI, the pIC50 with HLA-B*18:01 [2] was 4.48; with HLA-B*44:03 [9] it was 6.75; with HLA-B*40:01 [11], 6.27; with HLA-B*40:02 [5] it was 6.66; in the assay with HLA-B*44:02 [10], 7.26; with HLA-B*45:01 [6], 6.78.
ALASCMGLIY: the pIC50 was 5.60 in the assay with HLA-A*30:02 [12], 5.66 with HLA-A*26:01 [13], 6.00 with HLA-A*01:01 [14] and 7.92 with HLA-A*29:02 [15].
On to ALQLLLEV, for which the pIC50 in the assay with HLA-A*02:06 [16] is 5.66; with HLA-A*02:02 [17] it was 5.84; with HLA-A*02:01 [18], 6.18; with HLA-A*02:03 [19], 6.59.
With CEKLEQSGL, the pIC50 with HLA-B*44:03 [1] was 5.53; with HLA-B*18:01 [2], 4.37; with HLA-B*40:01 [3], 5.83; with HLA-B*40:02 [5] it was 6.79; with HLA-B*44:02 [10], 6.81; with HLA-B*45:01 [6], 6.44.
Turning to CELTDSSWI, the negative-log IC50 (pIC50) with HLA-B*18:01 [2] is 4.25; in the assay with HLA-B*40:02 [7] it was 5.85; with HLA-B*44:03 [9] it was 6.79; with HLA-B*40:01 [11] it was 6.05; in the assay with HLA-B*44:02 [10], 7.46; with HLA-B*45:01 [6] it was 6.86.
As for FEDLRVSSF, the pIC50 is 5.05 in the assay with HLA-B*44:03 [1]; 4.89 with HLA-B*40:01 [3]; 5.88 in the assay with HLA-B*40:02 [7]; 7.23 in the assay with HLA-B*18:01 [20]; 6.40 with HLA-B*44:02 [10].
Consider FESKSMKL, for which the pIC50 in the assay with HLA-B*44:03 [1] was 4.18; in the assay with HLA-B*18:01 [2], 5.60; with HLA-B*40:01 [3] it was 5.91; in the assay with HLA-B*44:02 [4] it was 4.63; in the assay with HLA-B*45:01 [8], 4.27; in the assay with HLA-B*40:02 [5], 6.67.
On to FNMLSTVLGV, for which the pIC50 in the assay with HLA-A*02:01 [18] is 7.82.
Still for that read-out and setting: the result for FSMELPSFGV reads 8.02.
As to FVEALARSI, the pIC50 with HLA-A*02:06 [21] was 6.18; with HLA-A*02:03 [19], 6.34; with HLA-A*68:02 [22], 6.01; in the assay with HLA-A*02:02 [23] it was 7.46.
As to GLIYNRMGA, the pIC50 in the assay with HLA-A*02:06 [16] is 4.59; with HLA-A*02:02 [17], 5.18; in the assay with HLA-A*02:03 [19] it was 6.56.
As to ILGFVFTL, the pIC50 with HLA-A*02:06 [21] was 6.50; with HLA-A*02:03 [19], 7.96; in the assay with HLA-A*02:02 [23] it was 8.59.
As to ILSPLTKGIL, the pIC50 with HLA-A*02:06 [16] was 4.58; in the assay with HLA-A*02:01 [24] it was 4.98; in the assay with HLA-A*68:02 [25], 4.88; with HLA-A*02:03 [19] it was 6.89; in the assay with HLA-A*02:02 [23], 6.80.
On to ITFMQALQLL, for which the pIC50 with HLA-A*02:06 [16] is 5.09; with HLA-A*02:03 [19], 6.07; with HLA-A*68:02 [22] it was 6.12; in the assay with HLA-A*02:02 [23] it was 6.90.
Regarding KTRPILSPLTK, the pIC50 in the assay with HLA-A*31:01 [26] was 7.15; with HLA-A*03:01 [27], 7.02.
As for LLFLKVPA, the pIC50 with HLA-A*02:06 [16] was 4.88; with HLA-A*68:02 [25], 4.64; with HLA-A*02:03 [19], 6.55; in the assay with HLA-A*02:02 [23], 6.88.
Take LYRKLKREITF: the pIC50 is 6.71 with HLA-A*23:01 and 6.69 with HLA-A*24:02.
As to QIAILVTTV, the pIC50 with HLA-A*68:02 [25] is 5.65; in the assay with HLA-A*02:06 [21] it was 6.16; with HLA-A*02:03 [19], 7.14; with HLA-A*02:02 [23] it was 6.82.
Turning to QLMWALGENMA, the pIC50 in the assay with HLA-A*02:06 [16] is 4.61; with HLA-A*02:03 [28], 5.87; with HLA-A*68:02 [25], 5.64; in the assay with HLA-A*02:02 [23], 6.45.
In the case of QLVWMACHSAA, the pIC50 is 4.67 with HLA-A*68:02 [25], 5.56 with HLA-A*02:02 [17] and 6.45 with HLA-A*02:03 [19].
With RMVLASTTAK, the pIC50 with HLA-A*33:01 [29] was 5.23.
With RMVLSAFDER, the pIC50 is 5.65 with HLA-A*11:01 [30]; 5.23 with HLA-A*03:01 [31]; 6.05 with HLA-A*33:01 [32]; 6.20 in the assay with HLA-A*68:01 [33]; 6.47 in the assay with HLA-A*31:01 [26].
As to RTMAWTVVNSI, the pIC50 with HLA-A*02:06 [16] was 5.35; in the assay with HLA-A*68:02 [25] it was 5.82; with HLA-A*02:03 [19], 7.15; with HLA-A*02:02 [23] it was 6.90.
SFSFGGFTFK: the pIC50 with HLA-A*11:01 [34] was 6.80; with HLA-A*33:01 [32], 6.77; in the assay with HLA-A*68:01 [33] it was 6.37; with HLA-A*31:01 [26], 7.09; in the assay with HLA-A*03:01 [27], 6.73.
For SWPDGAELPF, the pIC50 was 6.33 with HLA-A*23:01 and 6.11 with HLA-A*24:02.
As for TFEFTSFFY, the pIC50 was 4.92 with HLA-A*01:01 [35], 6.37 with HLA-A*30:02 [36], 6.40 in the assay with HLA-A*26:01 [37] and 10.00 in the assay with HLA-A*29:02 [15].
As for TLARSICEK, the negative logarithm of the IC50 (pIC50) is 5.84 in the assay with HLA-A*68:01 [38], 5.09 with HLA-A*31:01 [39], 6.56 with HLA-A*11:01 [34] and 6.90 in the assay with HLA-A*03:01 [27].
For VSDGGPNLY, the results for the pIC50 with HLA-A*30:02 [12], in the assay with HLA-A*26:01 [13] and with HLA-A*29:02 [40] were 5.66, 4.59 and 5.67, respectively.
With YERMCNILKG, the pIC50 is 5.52 with HLA-B*44:03 [1]; 5.65 in the assay with HLA-B*40:01 [3]; 5.73 with HLA-B*44:02 [4]; 4.70 with HLA-B*45:01 [8]; 6.15 with HLA-B*18:01 [20]; 6.84 in the assay with HLA-B*40:02 [5].

A word on the pIC50: it is the negative decadic logarithm of the IC50, by convention in mol/L.

The record behind these values is the Immune Epitope Database (IEDB).
